Laboratory results published in article PMC11805746 (Discover Nano, 2025).

Target: IsdB point mutant P173A (IsdB^P173A) (Staphylococcus aureus, UniProt Q2FZF0 41-613, P173A)
Test: atomic force spectroscopy

B1: methemoglobin (oxidized human hemoglobin A) (complex)
chain 1: not shown
chain 2: not shown
  koff: 0.0025 s⁻¹
